5 substances from patent publication US20040033600A1 can be followed below.

Holding throughout (experiment): cell-based or functional assay
Assay [1] addresses VP16CfEcRCDEF (VP16 activation domain fused to CfEcRCDEF) (Choristoneura fumiferana).
The target in assay [2] is Full length MmRXR (mouse Mus musculus RXRalpha) (Mus musculus) (UniProt P28700).
Assay [3] has as its target VP16MmRXRDEF (VP16 activation domain fused to the DEF domains of mouse RXR) (Mus musculus).
The target in assay [4] is VP16CfUSPDEF (VP16 activation domain fused to the D, E and F domains of Choristoneura fumiferana USP) (Choristoneura fumiferana).
Assay [5] deals with VP16DmEcRCDEF (VP16 activation domain fused to DmEcRCDEF) (Drosophila melanogaster).

Sequence of Full length MmRXR (mouse Mus musculus RXRalpha) (Mus musculus) (P28700 whole entry, the tested form may be a part): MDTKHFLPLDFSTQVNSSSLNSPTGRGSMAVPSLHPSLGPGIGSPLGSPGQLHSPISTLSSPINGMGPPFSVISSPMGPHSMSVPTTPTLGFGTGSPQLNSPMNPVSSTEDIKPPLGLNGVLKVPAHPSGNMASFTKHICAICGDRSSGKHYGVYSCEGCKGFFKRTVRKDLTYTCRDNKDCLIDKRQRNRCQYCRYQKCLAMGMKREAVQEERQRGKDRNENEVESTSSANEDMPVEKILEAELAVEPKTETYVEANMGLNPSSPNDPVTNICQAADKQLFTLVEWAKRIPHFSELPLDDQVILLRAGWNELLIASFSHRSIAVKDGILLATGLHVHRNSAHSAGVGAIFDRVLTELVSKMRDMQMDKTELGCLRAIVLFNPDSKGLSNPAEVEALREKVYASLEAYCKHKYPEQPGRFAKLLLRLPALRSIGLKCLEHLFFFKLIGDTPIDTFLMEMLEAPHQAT

With “GAL4CfUSPDEF (GAL4 DNA binding domain fused to CfUSPDEF)”, in assay [1], the Mean Fold Activation Through N-(2-ethyl-3-methoxybenzoyl)-N'-(3,5-dimethylbenzoyl)-N'-t-butylhydrazine; pGAL4RELuc reporter, 3T3 cells (switch 1.5) was 3 fold; the Mean Fold Activation Through N-(2-ethyl-3-methoxybenzoyl)-N'-(3,5-dimethylbenzoyl)-N'-t-butylhydrazine; pGAL4RELuc reporter, 293 cells (switch 1.5) stood at 2 fold; the Mean Fold Activation with 50 µM N-(2-ethyl-3-methoxybenzoyl)-N'-(3,5-dimethylbenzoyl)-N'-t-butylhydrazine; pGAL4RELuc reporter, CHO cells (switch 1.5) is 2 fold.
In assay [2], “Drosophila melanogaster EcR with a modified DNABD fused to VP16AD (EcR component of the DmVgRXR system, Invitrogen)” displayed a Mean Fold Activation Through N-(2-ethyl-3-methoxybenzoyl)-N'-(3,5-dimethylbenzoyl)-N'-t-butylhydrazine; pIND(SP1)LacZ reporter, 3T3 cells (switch 1.8) of 21 fold; a Mean Fold Activation Through N-(2-ethyl-3-methoxybenzoyl)-N'-(3,5-dimethylbenzoyl)-N'-t-butylhydrazine; pIND(SP1)LacZ reporter, 293 cells (switch 1.8) of 21 fold; a Mean Fold Activation with 50 µM N-(2-ethyl-3-methoxybenzoyl)-N'-(3,5-dimethylbenzoyl)-N'-t-butylhydrazine; pIND(SP1)LacZ reporter, CHO cells (switch 1.8) of 14 fold.
In assay [2], “CfVgRXR EcR component: truncated CfEcR comprising a partial A/B domain and the complete CDEF domains, fused to VP16AD” had a Mean Fold Activation Through N-(2-ethyl-3-methoxybenzoyl)-N'-(3,5-dimethylbenzoyl)-N'-t-butylhydrazine; pIND(SP1)LacZ reporter, 3T3 cells (switch 1.9) of 19 fold; a Mean Fold Activation Through N-(2-ethyl-3-methoxybenzoyl)-N'-(3,5-dimethylbenzoyl)-N'-t-butylhydrazine; pIND(SP1)LacZ reporter, 293 cells (switch 1.9) of 12 fold; a Mean Fold Activation with 50 µM N-(2-ethyl-3-methoxybenzoyl)-N'-(3,5-dimethylbenzoyl)-N'-t-butylhydrazine; pIND(SP1)LacZ reporter, CHO cells (switch 1.9) of 27 fold.
In assay [3], “GAL4CfEcRDEF (GAL4 DNA binding domain fused to the D, E and F domains of Choristoneura fumiferana EcR)” showed a Mean Fold Activation Through N-(2-ethyl-3-methoxybenzoyl)-N'-(3,5-dimethylbenzoyl)-N'-t-butylhydrazine; pGAL4RELuc reporter, 3T3 cells (switch 1.1) of 1120 fold; a Mean Fold Activation Through N-(2-ethyl-3-methoxybenzoyl)-N'-(3,5-dimethylbenzoyl)-N'-t-butylhydrazine; pGAL4RELuc reporter, 293 cells (switch 1.1) of 125 fold; a Mean Fold Activation with 50 µM N-(2-ethyl-3-methoxybenzoyl)-N'-(3,5-dimethylbenzoyl)-N'-t-butylhydrazine; pGAL4RELuc reporter, CHO cells (switch 1.1) of 267 fold; a Mean Fold Induction at 1.0 µM Concentration of Muristerone A; reporter gene, 3T3 cells (switch 1.1) of 1 fold. Moreover, in assay [3], the Mean Fold Induction at 1.0 µM Concentration of N'-(3,4-(1,2-ethylenedioxy)-2-methylbenzoyl)-N'-(3,5-dimethylbenzoyl)-N'-tert-butylhydrazine; reporter gene, 3T3 cells (switch 1.1) turned out to be 601 fold; the Mean Fold Induction at 1.0 µM Concentration of N-(2-ethyl-3-methoxybenzoyl)-N'-(3,5-dimethylbenzoyl)-N'-tert-butylhydrazine; reporter gene, 3T3 cells (switch 1.1) was determined as 116 fold; the Mean Fold Induction at 1.0 µM Concentration of Ponasterone A; reporter gene, 3T3 cells (switch 1.1) was found to be 1 fold. In assay [4], this substance came in with a Mean Fold Activation Through N-(2-ethyl-3-methoxybenzoyl)-N'-(3,5-dimethylbenzoyl)-N'-t-butylhydrazine; pGAL4RELuc reporter, 3T3 cells (switch 1.2) of 2 fold; a Mean Fold Activation Through N-(2-ethyl-3-methoxybenzoyl)-N'-(3,5-dimethylbenzoyl)-N'-t-butylhydrazine; pGAL4RELuc reporter, 293 cells (switch 1.2) of 2 fold; a Mean Fold Activation with 50 µM N-(2-ethyl-3-methoxybenzoyl)-N'-(3,5-dimethylbenzoyl)-N'-t-butylhydrazine; pGAL4RELuc reporter, CHO cells (switch 1.2) of 2 fold.
For the substance “GAL4MmRXRDEF (GAL4 DNA binding domain fused to MmRXRDEF)”, in assay [1], the Mean Fold Activation Through N-(2-ethyl-3-methoxybenzoyl)-N'-(3,5-dimethylbenzoyl)-N'-t-butylhydrazine; pGAL4RELuc reporter, 3T3 cells (switch 1.3) worked out at 47 fold; the Mean Fold Activation Through N-(2-ethyl-3-methoxybenzoyl)-N'-(3,5-dimethylbenzoyl)-N'-t-butylhydrazine; pGAL4RELuc reporter, 293 cells (switch 1.3) was 17 fold; the Mean Fold Activation with 50 µM N-(2-ethyl-3-methoxybenzoyl)-N'-(3,5-dimethylbenzoyl)-N'-t-butylhydrazine; pGAL4RELuc reporter, CHO cells (switch 1.3) worked out at 85 fold; the Mean Fold Induction at 1.0 µM Concentration of Muristerone A; reporter gene, 3T3 cells (switch 1.3) was determined as 1 fold. Also, in assay [1], the Mean Fold Induction at 1.0 µM Concentration of N'-(3,4-(1,2-ethylenedioxy)-2-methylbenzoyl)-N'-(3,5-dimethylbenzoyl)-N'-tert-butylhydrazine; reporter gene, 3T3 cells (switch 1.3) came to 54 fold; the Mean Fold Induction at 1.0 µM Concentration of N-(2-ethyl-3-methoxybenzoyl)-N'-(3,5-dimethylbenzoyl)-N'-tert-butylhydrazine; reporter gene, 3T3 cells (switch 1.3) was found to be 71 fold; the Mean Fold Induction at 1.0 µM Concentration of Ponasterone A; reporter gene, 3T3 cells (switch 1.3) was found to be 1 fold. In assay [5], this substance registered a Mean Fold Activation Through N-(2-ethyl-3-methoxybenzoyl)-N'-(3,5-dimethylbenzoyl)-N'-t-butylhydrazine; pGAL4RELuc reporter, 3T3 cells (switch 1.4) of 269 fold; a Mean Fold Activation Through N-(2-ethyl-3-methoxybenzoyl)-N'-(3,5-dimethylbenzoyl)-N'-t-butylhydrazine; pGAL4RELuc reporter, 293 cells (switch 1.4) of 3 fold; a Mean Fold Activation with 50 µM N-(2-ethyl-3-methoxybenzoyl)-N'-(3,5-dimethylbenzoyl)-N'-t-butylhydrazine; pGAL4RELuc reporter, CHO cells (switch 1.4) of 312 fold.
